Biological target: SARS-CoV-2 Wuhan spike (S) receptor binding domain (SARS-CoV-2)
Test: SPR; Biacore T200; […], single cycle kinetics, […]; 25°C; PBS, 0.05% Tween 20, 3.4 mM EDTA; 1:1 binding model; triplicate; […]

Q: For VHH-72-Fc L97W (Fc fusion), which koff is on record?
A: The koff was 0.0018 s⁻¹.

Q: With VHH-72-Fc L97W,T99V (Fc fusion) as the substance, how does the koff read?
A: Its koff is 0.00035 s⁻¹.

Q: VHH-72-Fc S56M (Fc fusion) was tested. Which koff did it give?
A: Its koff is 0.0031 s⁻¹.

Q: VHH-72-Fc S56M,L97W (Fc fusion) was tested. Which koff did it give?
A: Its koff is 0.00044 s⁻¹.

Q: Which koff does the source give for VHH-72-Fc S56M,L97W,T99V (Fc fusion) here?
A: Its koff is 0.00028 s⁻¹.

Q: VHH-72-Fc S56M,T99V (Fc fusion) was tested. Which koff did it give?
A: The koff was 0.00041 s⁻¹.

Q: VHH-72-Fc T99V (Fc fusion) was tested. Which koff did it give?
A: The koff was 0.00072 s⁻¹.

Q: Which koff does the source give for parental VHH-72-Fc (Fc fusion) here?
A: The koff was 0.0091 s⁻¹.

Source: article PMC8967028
